{"source": "paper PMC3954793", "about": "“SHP-2 Binds to Caveolin-1 and Regulates Src Activity via Competitive Inhibition of CSK in Response to H2O2 in Astrocytes” (PLoS ONE, 2014)", "key": {"caveolin-1/CSK complex": {"tested_on": "caveolin-1/CSK complex", "experiment": "Co-immunoprecipitation of caveolin-1 and CSK", "assay_type": "cell-based, human", "conditions": "HEK 293T cells transfected with WT or Y14A caveolin-1; 5 mM H2O2, 10 min", "experimental": "(§1) cDNA encoding full-length human caveolin-1 was obtained from Thermo Scientific (Waltham, MA, USA). The Y14A caveolin-1 mutant was generated using a QuickChange site-directed mutagenesis kit (Stratagene, Santa Clara, CA, USA) using PCR. pCMV-SPORT6-caveolin-1 cDNA (25 ng) was used as a template and added to dNTP mix, Pfu buffer, Pfu turbo DNA polymerase and 125 ng of each of the mutagenic primers: sense, 5′-[…]-3′ and antisense, 5′-[…]-3′. Samples were then incubated at 95°C for 1 min, then for 20 cycles of 95°C for 1 min, 65°C for 4 min, and 68°C for 12 min. The methylated parental DNA template in the PCR product was digested using the DpnI (10 U) restriction enzyme for 3 h at 37°C. […] After mutagenesis, 1 µg of caveolin-1 wild-type (WT) or Y14A mutant DNA was transfected into HEK 293T cells using VIVAMAGIC transfection reagent (VIVAGEN, Seongnam, Korea) containing 10% FBS according to the manufacturer’s instructions for 24 h before treatment with 5 mM H2O2 for 10 min; the cells were then analyzed by immunoblotting.\n(§2) Cells were plated and transfected with green fluorescence protein (GFP) siRNA (Samchully Pharm Co. Ltd., Seoul, Korea) as a control group and human CSK siRNA and human SHP-2 siRNA from Bioneer (Daejeon, Korea) using Lipofectamine RNAiMAX (Invitrogen, Carlsbad, CA, USA) according to the manufacturer’s instructions to achieve a final concentration of 300 nM. […]"}, "caveolin-1/SHP-2 complex": {"tested_on": "caveolin-1/SHP-2 complex", "experiment": "Co-immunoprecipitation of caveolin-1 and SHP-2", "assay_type": "cell-based, human", "conditions": "HEK 293T cells transfected with WT or Y14A caveolin-1; 5 mM H2O2, 10 min", "experimental": "as §1, §2"}}, "data": [{"molecule": "WT caveolin-1: full-length human wild-type caveolin-1 expressed in transfected HEK 293T cells (protein, phosphotyrosine at 14 after H2O2 treatment, full-length human wild-type caveolin-1 expressed in transfected HEK 293T cells) MSGGKYVDSEGHLYTVPIREQGNIYKPNNKAMADELSEKQVYDAHTKEIDLVNRDPKHLNDDVVKIDFEDVIAEPEGTHSFDGIWKASFTTFTVTKYWFYRLLSALFGIPMALIWGIYFAILSFLHIWAVVPCIKSFLIEIQCISRVYSIYVHTVCDPLFEAVGKIFSNVRINLQKEI", "values": [{"measurement": "interaction between CSK and transfected caveolin-1", "setting": "caveolin-1/CSK complex", "value": "An interaction between CSK and WT caveolin-1, but not Y14A mutant caveolin-1, was observed in the presence of H2O2"}, {"measurement": "interaction of SHP-2 with transfected caveolin-1", "setting": "caveolin-1/SHP-2 complex", "value": "SHP-2 interacted with WT caveolin-1, but not mutant caveolin-1, and only in the presence of H2O2"}]}]}
